# Experimental data as given in publication PMC5691035 (Nature Communications, 2017).
# Where a chain is given by its changes, count along the chain named.
# B1: 1245 Fab (Fab, V domains shown)
# VH: QVQLVQSGGEVKKPGASVKVSCKASGYTFTSYGISWVRQAPGQGLEWMGWISAYNGNRKYAQKVQGRVSMTIDTHTSTANMELRSLRSDDTAVYYCAKDRGDGDYRYYYYGMDVWGQGTTVTVSS
# VL: not shown
# notes: also called mAb 1245; source: HEK293F, transient, purified (KappaSelect or LambdaSelect, MonoS, SEC)
# B2: 1245 IgG (antibody, V domains shown)
# VH: B1 VH
# VL: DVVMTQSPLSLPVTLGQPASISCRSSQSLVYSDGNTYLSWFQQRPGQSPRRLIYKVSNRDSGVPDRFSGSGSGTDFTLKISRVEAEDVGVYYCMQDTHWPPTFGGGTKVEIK
# notes: IgG1; also called mAb 1245; source: HEK293, transient, purified from conditioned medium (Protein A); synthesized by LakePharma
# B3: 1267 Fab (Fab, V domains shown)
# VH: QVQLQQSGPGLVKPSQTLSLTCAISGDSVSSNSAAWNWIRQSPSRGLEWLGRTYYRSKWYNDYAVSVRGRITINPDTSKNHFSLQLNSVTPEDTAVYFCARDLMTNSGWYVYFDCWGQGTLVTVSS
# VL: SYELTQPPSVSVSPGQSARITCSGDALPMKYAYWYQQKSGQAPVLVIYEDSKRPSGIPERFSGSSSGTMATLTISGAQVEDEADYYCFSTDSSGNHRVFGGGTKLT
# notes: also called mAb 1267; source: HEK293F, transient, purified (KappaSelect or LambdaSelect, MonoS, SEC)
# B4: 1266 Fab (Fab, V domains shown)
# VH: QVQLQQSGPGLVKPSQTLSLTCAISGDSVSSNSAAWNWIRQSPSRGLEWLGRTYYRSKWYNDYAVSVKSRITINADTSKNQFSLQLNSVTPEDTAVYYCVRDLLGSSGWYVFFDNWGQGTLVTVSS
# VL: B3 VL
# notes: also called mAb 1266; source: HEK293F, transient, purified (KappaSelect or LambdaSelect, MonoS, SEC)
# B5: 1268 Fab (Fab, V domains shown)
# VH: EVQLVESGGGLVKPGGSLRLSCAASGFTFSRYSMNWVRQAPGKGLEWVSSISSRSSYKYYVDSVKGRFTISRDNAKNSLYLQMNSLRAEDTAVYYCARDDYGSGSYYYNWLDPWGQGTLVTVSS
# VL: DIQLTQSPSFLSASVGDRVTITCWASQGISSFLAWYQQKPGKAPKLLIYAASTLESGVPSRFSGSGSGTEFTLTISSLQPEDFATYYCQQLNSYPRTFGQGTKVEIK
# notes: also called mAb 1268; source: HEK293F, transient, purified (KappaSelect or LambdaSelect, MonoS, SEC)
# B6: 1262 Fab (Fab, V domains shown)
# VH: QVQLQESGPGLVKPSGTLSLTCAVSGGSISSSHWWSWVRQPPGKGLEWVGEISLSGSTHYGPSLKSRVSISLDKSMNHFSLRLSSVTAADTAVYYCARESRFYGAYFDYWGQGTLVTVSS
# VL: B5 VL with S30N, F32Y, A43T, E55Q, R96C, T97S, K103T, V104L
# notes: also called mAb 1262; source: HEK293F, transient, purified (KappaSelect or LambdaSelect, MonoS, SEC)
# B7: 1269 IgG (antibody, V domains shown)
# VH: EVQLVESGGGLVQSGGSLRLSCAASGFTFSRNAMNWVRQAPGKGLEWVSTISGSGDSTYYADSVKGRFTISRDNSKNTLYLQVNSLRAEDTAVYYCAKGDYYFDSGSYSFGMDVWGQGTTVTVSS
# VL: EIVLTQSPGTLSLSPGERATLSCRTSQSVSSSYLAWYQQKPGQAPRLLMYGASSRATGIPDRFSGSGSGTDFTLTISRLEPEDFAVYYCQQYGNSFGQGTRLEIK
# notes: IgG1; also called mAb 1269; source: HEK293, transient, purified from conditioned medium (Protein A); synthesized by LakePharma
# B8: 1269 Fab (Fab, V domains shown)
# VH: B7 VH
# VL: B7 VL
# notes: also called mAb 1269; source: HEK293F, transient, purified (KappaSelect or LambdaSelect, MonoS, SEC)
# B9: 1202 Fab (Fab, V domains shown)
# VH: QVQLVESGGDLVKPGGSLRLSCAASGFTFSDHYMNWIRQAPGKGLEWVSYISSSGSTIYYSDSVKGRFTISRDNAKYLLSLQMNSLRAEDTAVYFCARDPMVRGFHDAFDIWGQGTMVTVSS
# VL: SYELTQPPSVSVSPGQTASITCSGDKLGDKYASWYQQKPGQSPVLVIFQDNKRPSGIPERFSGSNSGNTATLTISETQAMDEADYYCQAWDISTAVFGTGTNVT
# notes: also called mAb 1202; source: HEK293F, transient, purified (KappaSelect or LambdaSelect, MonoS, SEC)
# B10: 1260 Fab (Fab, V domains shown)
# VH: QVQLVQSGAEVKKPGASVKVSCRASGYIFTSYGFSWVRQAPGQGLEWMGWISAYNGNTDYSQKLQGRVTMTTDTSTNTVYMELRTLQSDDTAVYYCARDRGDRLYYYYYYGMDVWGQGTTVTVSS
# VL: not shown
# notes: also called mAb 1260; source: HEK293F, transient, purified (KappaSelect or LambdaSelect, MonoS, SEC)
# B11: 1245 Fab (Fab, V domains shown)
# VH: B1 VH
# VL: not shown
# notes: source: HEK293F, transiently expressed, purified (KappaSelect or LambdaSelect, MonoS, Superdex 200)
# B12: 1266 Fab (Fab, V domains shown)
# VH: B4 VH
# VL: B3 VL
# notes: source: HEK293F, transiently expressed, purified (LambdaSelect or KappaSelect, MonoS, Superdex 200)
# B13: 1267 Fab (Fab, V domains shown)
# VH: B3 VH
# VL: B3 VL
# notes: as for B12
# B14: 1190 Fab (Fab, V domains shown)
# VH: not shown
# VL: SYVLTQPPSVSVAPGQTARITCGGSNIGSKSVHWYQQKPGQTPMLVIYYDYDRPSGIPERFSGSNSGSTATLTISRVEAGDEADYYCQVWDSSSDHVWVFGGGTTLTVL
# notes: as for B12
# B15: 1262 Fab (Fab, V domains shown)
# VH: B6 VH
# VL: B5 VL with S30N, F32Y, A43T, E55Q, R96C, T97S, K103T, V104L
# notes: as for B11
# B16: 1268 Fab (Fab, V domains shown)
# VH: B5 VH
# VL: B5 VL
# notes: as for B11
# B17: 1269 Fab (Fab, V domains shown)
# VH: B7 VH
# VL: B7 VL
# notes: as for B11
# B18: 1276 Fab (Fab, V domains shown)
# VH: not shown
# VL: SYVLTQPPSVSVAPGKTAKITCGGNNIGSKSVHWYQQKPGQAPVLVMYYDFDRPSGIPERFSGSNSGNTATLTISRVEAEDEADYYCQVWDSDRYWVFGGGTKLTVL
# notes: as for B12
# B19: 1202 Fab (Fab, V domains shown)
# VH: B9 VH
# VL: B9 VL
# notes: as for B12
# B20: 1260 Fab (Fab, V domains shown)
# VH: B10 VH
# VL: not shown
# notes: as for B11
# Biological target: Pfs25, monomeric, Nicotiana benthamiana-produced (Plasmodium falciparum (NF54; identical …, UniProt P13829)
# Sequence (P13829 17-196): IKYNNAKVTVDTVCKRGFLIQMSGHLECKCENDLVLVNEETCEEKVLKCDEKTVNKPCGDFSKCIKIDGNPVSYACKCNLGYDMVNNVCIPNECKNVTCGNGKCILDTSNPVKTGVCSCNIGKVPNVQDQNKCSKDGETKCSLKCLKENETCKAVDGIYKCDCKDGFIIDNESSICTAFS
# Test: BLI
# Conditions: both partners purified
Binder,Kd,binding result
B1,31 nM,
B2,< 0.001 nM,
B3,,binds
B4,,binds
B5,,binds
B6,,binds
B7,< 0.001 nM,
B8,3.7 nM,
B9,,binds
B10,,binds

# Biological target: Pfs25, monomeric, produced in Nicotiana benthamiana (Plasmodium falciparum (NF54; identical …, UniProt P13829)
# Sequence (P13829 22-193): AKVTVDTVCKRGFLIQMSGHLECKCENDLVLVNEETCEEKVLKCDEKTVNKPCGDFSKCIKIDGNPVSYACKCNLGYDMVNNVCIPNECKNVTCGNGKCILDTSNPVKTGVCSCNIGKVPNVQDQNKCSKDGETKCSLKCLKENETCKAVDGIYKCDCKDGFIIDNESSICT
# Test: BLI
# Conditions: both partners purified
Binder,koff,kon,Kd
B11,0.00038 s⁻¹,22000 M⁻¹ s⁻¹,
B12,0.012 s⁻¹,420000 M⁻¹ s⁻¹,31 nM
B13,0.0032 s⁻¹,430000 M⁻¹ s⁻¹,7.9 nM
B14,0.0021 s⁻¹,300000 M⁻¹ s⁻¹,
B15,0.0011 s⁻¹,80000 M⁻¹ s⁻¹,12 nM
B16,0.006 s⁻¹,93000 M⁻¹ s⁻¹,67 nM
B17,0.00084 s⁻¹,220000 M⁻¹ s⁻¹,
B18,0.0037 s⁻¹,210000 M⁻¹ s⁻¹,
B19,0.016 s⁻¹,480000 M⁻¹ s⁻¹,35 nM
B20,0.00093 s⁻¹,23000 M⁻¹ s⁻¹,41 nM
